{
  "source": "patent US7470669B2",
  "about": "“Isolated polypeptide comprising a leptin fragment” (Serono Genetics Institute, S.A., priority 1999, dated 2008)",
  "molecules": {"B1": {"name": "mouse leptin: recombinant mouse leptin, laboratory-prepared or commercial (Sigma, Calbiochem) (protein, UniProt P41160 22-167, looked up)", "Leptin": "VPIQKVQDDTKTLIKTIVTRINDISHTQSVSAKQRVTGLDFIPGLHPILSLSKMDQTLAVYQQVLTSLPSQNVLQIANDLENLRDLLHLLAFSKSCSLPQTSGLQKPESLDGVLEASLYSTEVVALSRLQGSLQDILQQLDVSPEC"}},
  "system": "db^Pas/db^Pas mice",
  "assay": "Postprandial plasma TG response after high-fat test meal in db^Pas/db^Pas mice",
  "assay_type": "in vivo, mouse",
  "details": "0.25 μg/animal i.p.",
  "procedure": "FIGS. 1A and 1B show the effect of leptin on postprandial plasma TG response in db/db and db^Pas/db^Pas mice. Overnight-fasted db/db (A), db^Pas/db^Pas (B) mice were gavage-fed a high-fat test meal and immediately injected intravenously (db/db) or intraperitoneally (db^Pas/db^Pas) with saline (open symbols) or 50 μg mouse recombinant leptin (closed symbols). At the indicated times, blood was collected from the tail (A) or orbital (B) vein, plasma was separated by centrifugation, and plasma TG concentrations were determined using an enzymatic kit. Each point represents the mean±SEM (db/db: saline, n=4, leptin, n=3; db^Pas/db^Pas: saline, n=6, leptin, n=7). […] The plasma lipid response was then measured as in A and B. The area under the response curve (AUC) was then calculated using a triangulation method on Microsoft Excel between 0 and 4 hr (mg TG·h/mL). […]\nFIGS. 7A and 7B show a comparison of the effect of human and mouse leptin on LSR activity in rat hepatocytes and on postprandial increase in plasma TG in db^Pas/db^Pas mice. […] The media were removed and were analyzed for TCA-soluble degradation products. […] The data represent the difference in TG concentrations measured at t=0 and the average of the concentrations at 3 and 4 hours. […]",
  "data": [
    {"molecule": "B1", "values": [
      {"measurement": "postprandial plasma TG response", "value": "pronounced effect"}
    ]}
  ]
}
